Legend:
Assay in all cases: cell-based or functional assay
[1] = biological target: HLA-DQ2.5 on IHW09023 cells loaded with gamma 3 gliadin peptide (human; wheat)
[2] = biological target: HLA-DQ2.5 on IHW09023 cells loaded with gamma 4a gliadin peptide (human; wheat)
[3] = biological target: HLA-DQ2.5 on IHW09023 cells loaded with gamma 2 gliadin peptide (human; wheat)
[4] = biological target: HLA-DQ2.5 on IHW09023 cells loaded with gamma 1 gliadin peptide (human; wheat)
[5] = biological target: HLA-DQ2.5 on IHW09023 cells loaded with 33mer gliadin peptide (human; wheat)
[6] = biological target: HLA-DQ2.5 on IHW09023 cells loaded with BC hordein peptide (human; barley)
[7] = biological target: HLA-DQ2.5 on IHW09023 cells loaded with omega1/2 gliadin peptide (human; wheat)
[8] = biological target: HLA-DQ2.5 on IHW09023 cells loaded with gamma 4d gliadin peptide (human; wheat)

B1: DQN034425 (antibody, V domains shown)
VH: QVQLVESGGGVVQPGRSLRLSCAASGFTFSSSYWMCWVRQAPGQGLEWMGCVYGGSDTTYYASWTKGRFTISRDNSKNTLYLQMNSLRAEDTAVYYCARDPLNYYYYGELNLWGQGTLVTVSS
VL: DIQMTQSPSSLSASVGDRVTITCQATENIYSGLAWYQQKPGKAPKLLIYYVSTLASGIPARFSGSGSGTDFTLTISSLEPEDFAVYYCQTYHDISNVTFGQGTKVEIK
- IC50 (ng/mL), γ3 gliadin TCR, 100 µM γ3 gliadin [1]: 3100 ng/mL
- IC50 (ng/mL), γ4a gliadin TCR, 25 µM γ4a gliadin [2]: > 20000 ng/mL
- IC50 (ng/mL), γ2 gliadin TCR, 250 nM γ2 gliadin [3]: > 20000 ng/mL
- IC50 (ng/mL), γ1 gliadin TCR, 250 nM γ1 gliadin [4]: > 20000 ng/mL
- IC50 (ng/mL), α1a gliadin TCR, 250 nM 33mer gliadin [5]: 10.6 ng/mL
- IC50 (ng/mL), α1b gliadin TCR, 250 nM 33mer gliadin [5]: 46.4 ng/mL
- IC50 (ng/mL), α2 gliadin TCR, 250 nM 33mer gliadin [5]: 1.75 ng/mL
- IC50 (ng/mL), BC hordein TCR, 250 nM BC hordein [6]: > 20000 ng/mL
- IC50 (ng/mL), ω1 gliadin TCR, 25 µM ω1/2 gliadin [7]: 3.12 ng/mL
- IC50 (ng/mL), ω2 gliadin TCR, 250 nM ω1/2 gliadin [7]: > 500 ng/mL
- IC50 (ng/mL), γ4d gliadin TCR, 100 µM γ4d gliadin [8]: > 20000 ng/mL

Source: patent publication US20240400693A1
